Test results: the DeepSol protein solubility set

Assay: soluble on expression in E. coli; label from the status in PepcDB or PDB records

Sequence | soluble on expression in E. coli
MSKALASDEKDDWITHLKAISNVFTQVCTLSASEESAKKLAIKEREECLQELVELRAIAEAHDDVIQQFHLLLAANHQGDATSRQIFNDMKQEVGDNMERIQEHRLVEAKLNVEKRRNERMAKHINEVSKKSVMHLMATRFYARELAAMRQMMDLVRNAATIESAVKSKLWDEIEKENRLLRLNTLWLINRINSSDLGDAAFENGDDWQSSPRLVILMREHINQGLGLEITGGCDQFRPVVVTGKLKRSMADDDQLRVNDRILAIDGTFVTNTTTHAEVMEMLENESAKDFISLIVSQFDPTKYHEAHPNGKCHKFVSTPISGKADSGEDV | not soluble
MSKFWSPFVKDLVPYVPGEQPKLSRLVKLNTNENPYGPSPQALAAMQAELNDDLRLYPDPNGERLKQAVAAHYGVQANQVFVGNGSDEVLAHIFHGLFQHDLPLLFPDVTYSFYPVYCGLYGIAHEKIALDERFRIRVEDYARPNGGIIFPNPNAPTGCLLPLDAIEAMLKASPDSVVVVDEAYVDFGGESAIALVDRYPNLLVTQTLSKSRSLAGLRVGLAVGHADLVEALERIKNSFNSYPLDRLAIAGAAAAFEDDAYFRRTCQAVIDSREALSASLQALGFEVLPSAANFVFARHPRHDAGQIASTLREQGVIVRHFKQARIDQFLRITIGSPEQNQALLDALHFLK | not soluble
MSKIADDQNFNDEEENFAKLFKKELEKEETLEKGTIKEGLVVSINENDGYAMVSVGGKTEGRLALNEITDEKGQLLYQKNDPIIVHVSEKGEHPSVSYKKAISQQKIQAKIEELGENYENAIIEGKIVGKNKGGYIVESQGVEYFLSRSHSSLKNDANHIGKRVKACIIRVDKENHSINISRKRFFEVNDKRQLEVSKELLEATEPVLGVVRQITPFGIFVEAKGIEGLVHYSEISHKGPVNPEKYYKEGDEVYVKAIAYDAEKRRLSLSIKATIEDPWEEIQDKLKPGYAIKVVVSNIEHYGVFVDIGNDIEGFLHVSEISWDKNVSHPNNYLSVGQEIDVKIIDIDPKNRRLRVSLKQLTNRPFDVFESKHQVGDVLEGKVATLTDFGAFLNLGGVDGLLHNHDAFWDKDKKCKDHYKIGDVIKVKILKINKKDKKISLSAKHLVTSPTEEFAQKHKTDSVIQGKVVSIKDFGVFINADGIDVLIKNEDLNPLKKDEIKIGQEITCVVVAIEKSNNKVRASVHRLERKKEKEELQAFNTSDDKMTLGDILKEKLLEHHHHHH | soluble
MSKISSVLIDLSGTIHIEEFAIPGAQTALELLRQHAKVKFVTNTTKESKRLLHQRLINCGFKVEKEEIFTSLTAARDLIVKNQYRPFFIVDDRAMEDFEGISTDDPNAVVIGLAPEKFNDTTLTHAFRLIKEKKASLIAINKGRYHQTNAGLCLGPGTYVAGLEYSAGVEATIVGKPNKLFFESALQSLNENVDFSSAVMIGDDVNDDALGAIKIGMRAILVKTGKFRDGDELKVKNVANSFVDAVNMIIENKVENG | not soluble
MSKKRGLSGEEKRTRMMEIFFETKDVFQLKDLEKLAPKEKGITAMSVKEVLQSLVDDGMVDCERIGTSNYYWAFPSKALHARKRKLEALNSQLSEGSQKHADLQKSIEKARVGRQETEERAMLAKELFSFRDQRQQLKAEVEKYRECDPQVVEEIREANKVAKEAANRWTDNIFAIKSWAKRKFGFEESKIDKNFGIPEDFDYIDMSKSRAEAAAGAPGIILRYLQEQNRPYSAQDVFGNLQKEHGLGKAAVVKALDQLAQEGKIKEKTYGKQKIYFADQNQFDTVSDADLHGLDASIVALTAKVQSLQQSCRHMEAELKELTSALTTPEMQKEIQELKKECAQYTERLKNIKAATNHVTPEEKEKVYRDRQKYCKEWRKRKRMTTELCDAILEGYPKSKKQFFEEVGIETDEDHNVLLPDP | soluble
MSKLAELQAETREIIEDLLNDGSEPNALYIIEHHIAHHDFDLLEKIAVDAFKAGYEVSEAEEFKDDDGKPIFCFDIISEVELKAEIIDAQQKEILPLLEKHNGIYDGWGTYFEDPNADDDEYGDDGEFLDDEDEYGDDGEFFDDEDEEEPRVH | not soluble
MSKLGKQDVYYFEGLDDILIAMMTTKDAVGTEPAFGEVVRLPIATKLGIKGNGTALEKWASSKMFRRVSRETKHEIALDHVGIPIAVMDEIKGLIAQSGVTFGKNTAREFPYFAFGFIGNIENGGKKAVWYPKTQLSNVIDEEYTTAEDETKIDDVTANFVSTGLTYNNVMYSSFDSNRDSASIELFEKFIAQPVYDEEQWKKLAGPSRGGGSELEHHHHHH | soluble
MSKLIITDNLEMLTEQGATRRRLLQAGLGACALLAMPAANAAYSRVYEKRVSLLNLHTGERVRTAYWERGKYIPEALRMIEKVLRDHRSGDIHRIDPRLLDLMQHLHHKTGNSKEFQVVSGYRSPATNAALSVQSHGVAKNSLHMQGKAIDIRLPGVPLHVLRRAAMSMHAGGVGYYPKSNFIHIDTGNVRYW | not soluble
MSKLLVVKAHPLTKEESRSVRALETFLASYRETNPSDEIEILDVYAPETNMPEIDEELLSAWGALRAGAAFETLSENQQQKVARFNELTDQFLSADKVVIANPMWNLNVPTRLKAWVDTINVAGKTFQYTAEGPKPLTSGKKALHIQSNGGFYEGKDFASQYIKAILNFIGVDQVDGLFIEGIDHFPDRAEELLNTAMTKATEYGKTF | soluble
MSKMLYRVELIITNKEGVRDPEGETIQRYVVSRFSDKIIETRAGKYLVFRVNSSSQQEATELVKKLADEMRLYNPIVHKIEIRANRIEDSSN | soluble
MSKNKNDYEHMLFYFAYKTFITTADEIIEQYGMSRQHHRFLFFINKLPGITIKELLITLEISKQGSHATLRKLKEEGLIVEQTSKQDRRVKKLFTTEAGDDLIGKLNQAQDELIQQTLQKVGHDWYAMMEELANYREGFKTIEHLKED | soluble
MSKPDDPAYHWNGAELDLDAYLARIGFAGERAPTLATLRELVYRHTTAIPFENLEAVLGRPVRLDLATLQDKLVHSRRGGYCYENAGLFAAALERLGFGVTGHTGRVTMGAGGLRPATHALLRVTTADDDRVWMCDVGFGRGPLRPYELRPQPDEFTLGDWRFRLERRTGELGTDLWVLHQFGRDGWVDRYTFTTAPQYRIDFEVGNHFVSTSPRSPFTTRPFLQRFHSDRHHVLDGLTLITERPDGSADIRALTPGELPEVINELFDIELPGPDLDALTTGSWLERVAAGTP | soluble
MSKTDVKKSREASGILTLQVNLRERRNFLNLMQNKLFSWKIRFSAIKGKCSQKSKYFRRSRSEDCYVEADLKILSRTRRSRKLPGTVPDFLGKQLIGISSSVVSRVSRSCR | soluble
MSKVRVAGFSVSVDGFGAGPEQSLNDPLGKRGPEMFQWFFHTRTFRAMMGKDDGSTGIDEDYASRAMANFGAFILGRNMFGPIRGEWPDDAWKGWWGPNPPYHAPTYVLTHYPREPLVMEGGTTFHFVTGGIHQALDQAKAAAGDKDVKIGGGVATVRQYLQAGLIDELHFAVSPVVLGKGEAMFAGIDLPALDFRVTEHAASEKATHIVLAKLEHHHHHH | not soluble
MSLAADKVVVMLNWYVYGEHAPFYYGKAKGIYAAEGIDLEIQEGRGSAATTQAVAAKTADFGYVDVPTMMRAAIKGAPVVATGVLLQTSPMSAMGFVDKNIRKPEDIKGKTVAITPADSMTQIWPLFLKKTGLKESDFQTVAGDGQTKLNAVINGQADLLLGYVMDQSMKIKDATGKDVYPIKFADYGINMVSSGIIANSDYVKANADLVRRFMSATTKAVEAAEKEPKAAAQSILDANPKGGKIDTLTQGFELTIPLYRTAATKSKRPFQVTEQNMTETVNLLVEYGGLDAKAKDNPKAFYTNDYLPKSGEGHHHHHH | soluble
MSLAADTLRIKQLQRCGDLFSDSQQRWCLCAEGLRANLPTVWLGGTRLSEADIERQGDRLTLKLARQAQRSAPLWLADGGRTSNPVWLTRQRSHVIAAGPDEVAKNMDGLTTYVDLVSLLIEEKYDGLGEARRIAGKYGAQVVGAIPPLNVYQLRLPVEDLVQRDAMVLRMGSEVSVDAVIVEESAPERGEEGNGRGTRAIDQADEWAANRFMDALYFYRRRIAASGLPVKPVRVGVIEREVDFDAPGFSHYRGGCEQGQTCLYARDGNRPASHGSHVAGILAAQGEGFLPGLGKHSPGFEVMVERNSDAGITANIAASVNLVEDGVRVLNWSWGIHRVGARDVNGDEVDSLVRSGLAMSGYEELLEEFFLWLRKEHPDVVVVNSAGNGASWSGTDEYRLPSSFITEQLLVVGGHQRSGKATAVEAHDHVRKRHSSNIDMRVDVSAAACIRPVSAEAAHCGTSYATPLVTATVATMLSINPALTPEQVRMLLRRSALTLGAEQDFEAMDAEDLTAPILPSERGGRLNDPDLGRSARLDMQRALDLAVQSLERVREGHHHHHH | not soluble
MSLAALDPITPAGGGTWRFPANEPLRLDSGGVIEGLEIAYQTYGQLNADKSNAVLICHALTGDQHVASPHPTTGKPGWWQRLVGPGKPLDPARHFIICSNVIGGCMGSTGPASINPATGKTYGLSFPVITIADMVRAQAMLVSALGVETLFAVVGGSMGGMQVQQWAVDYPERMFSAVVLASASRHSAQNIAFHEVGRQAIMADPDWRGGAYAEHGVRPEKGLAVARMAAHITYLSEPALQRKFGRELQRDGLSWGFDADFQVESYLRHQGSSFVDRFDANSYLYITRAMDYFDIAASHGGVLAKAFTRARNVRFCVLSFSSDWLYPTAENRHLVRALTAAGARAAFAEIESDKGHDAFLLDEPVMDAALEGFLASAERDRGLVEGHHHHHH | soluble
MSLACGEFSLIARYFDRVRSSRLDVELGIGDDCALLNIPEKQTLAISTDTLVAGNHFLPDIDPADLAYKALAVNLSDLAAMGADPAWLTLALTLPDVDEAWLESFSDSLFDLLNYYDMQLIGGDTTRGPLSMTLGIHGFVPMGRALTRSGAKPGDWIYVTGTPGDSAAGLAILQNRLQVADAKDADYLIKRHLRPSPRILQGQALRDLANSAIDLSDGLISDLGHIVKASDCGARIDLALLPFSDALSRHVEPEQALRWALSGGEDYELCFTVPELNRGALDVALGHLGVPFTCIGQMTADIEGLCFIRDGEPVTLDWKGYDHFATPEGGSHHHHHH | soluble
MSLADISVIQSLPLSGSQAVTGRALNAGARLYFDWLNLNGGINGETIRLVARDDEQKIEQTVRNVRDMARVDNPVALLTVVGTANVEALMREGVLAEARLPLVGPATGASSMTTDPLVFPIKASYQQEIDKMITALVTIGVTRIGVLYQEDALGKEAITGVERTLKAHALAITAMASYPRNTANVGPAVDKLLAADVQAIFLGATAEPAAQFVRQYRARGGEAQLLGLSSIDPGILQKVAGLDAVRGYSLALVMPNPGKSVNPVIREFNRARAAVGAKDVDLSFRAVEGFVAAKVLAEAIRRAGPKPTREQVRHALTELRDYDVGGGFTVDFTDRSRPGSHYIELGVVGPNGLVIQEGHHHHHH | soluble
MSLADPGREGHLEQRILQVLTEAGSPVKLAQLVKECQAPKRELNQVLYRMKKELKVSLTSPATWCLGGTDPEGEGPAELALSSPAERPQQHAATIPETPGPQFSQQREEDIYRFLKDNGPQRALVIAQALGMRTAKDVNRDLYRMKSRHLLDMDEQSKAWTIYRPEDSGREGHHHHHH | soluble
